Experimental data taken from the RNAGym collection of RNA variant scans (doi:10.7554/elife.90254).

B1: LINE1-full (parent)
chain: UACGUAGGUGGUUUUCCCCUGAUAGUGCUAAGGGGGCCUGGAAGUUUGGACUGGGCAGAGCUCAACACAGCGUGGCAAAGUGGCUGUGGCUAGACUGCCUCUCUGGAUUCCUCGUCACUCAGCAGGGCAUCUCUGAGAGAAAUGCC

Variants of: B1
Experiment: self-cleavage, relative activity (ratio to wild type); higher = more cleavage; in vitro, sequencing; the parent is a self-cleaving ribozyme

In order of rising self-cleavage:
1. UACGUAGGUGGUUUUCCCCUGAUAGUGCUAAGGGGGCCUGGAAGUUUGGACUGGGCAGAGCUCAACACAGCGUGGCAAAGUGGCUGUGGCUAGACUACCUCUCUGGAUUCCUCGUCACUCAGCAGGGCAUCUCUGAGAGAGAUGCC [G97A A141G]  0.12
2. UACGUAGGUGGUUUUCCCCUGAUAGUGCUAAGGGGGCCUGGAAGUUUGGACUGGGCAGAGCUCAACACAGCGUGGCAAAGUGGCCGUGGCUAGACUGCCUCUCUGGAUUCCUCGUCACUCAGCAGGGCAUCUCUGUGAGAAAUGCC [U85C A136U]  0.24
3. UACGUAGGUGGUUUUCCCCUGAUAGUGCUAAGGGGGCCUGGAAGUUUGGACUGGGCAGAGCUCAACACAGCGUGGCAAAGUGGCCGUGGCUAGACUGCCUCUCUGGAUUCCUCGUCACUCAGCAGGGCAUCUCUGCGAGAAAUGCC [U85C A136C]  0.24
4. UACGUAGGUGGUUUUCCCCUGAUAGUGCUACGGGGGCCUGGAAGUUUGGACUGGGCAGAGCUCAACACGGCGUGGCAAAGUGGCUGUGGCUAGACUGCCUCUCUGGAUUCCUCGUCACUCAGCAGGGCAUCUCUGAGAGAAAUGCC [A31C A69G]  0.33
5. UACGUAGGUGGUUUUCCCCUGAUAGUGCUAAGGGGGCCUGGAAGUUUGGACUGGGCAGAGCUCAACACAGCGUGGCAAAGUGGCUGUGGCUAGUCUGCCUCUCUGGAUUCCGCGUCACUCAGCAGGGCAUCUCUGAGAGAAAUGCC [A94U U112G]  0.42
6. UACGUAGGUGGUUUUCCCCUGAUAGUGCUAAGGGGGCCUGGAAGUUUGGACUGGGCAGAGCUCAACACAGCGUGGCAAAGUGGCUGUGGCUAGACUGCCUCUCUGGAUUCCUUGUCACUCAGCAGGGCAUCUCAGAGAGAAAUGCC [C113U U134A]  0.47
7. UACGUGGGUGGUUUUCCCCUGAUAGUGCUAAGGGGGCCUGGAAGUUUGGACUGGGCAGAGCUCAACACAGCGUGGCAAAGUGGCUGUGGCUAGACUGCCUCUCUGGAUUCCUCGUCACUCAGCAGGGCAUCUCUGAGAGGAAUGCC [A6G A140G]  0.69
8. UACGUAGGUGGUUUUCCCCUGGUAGUGCUAAGGGGGCCUGGAAGUUUGGACUGGGCAGAGCUCAACACAGCGUGGCAAAGUGGCUGUGGCAAGACUGCCUCUCUGGAUUCCUCGUCACUCAGCAGGGCAUCUCUGAGAGAAAUGCC [A22G U91A]  0.71
9. UACGUAGGUGGUUUUCCCCUGAUAGUGCUAAGGGGGCCUGGAAGUUUGGACUGGGCAGAGCUCAACACAGCGCGGCAAAGUGGCUGUGGCUAGACUGCCUCUCUGGAUUCCUCGUCACUCAGCAGGUCAUCUCUGAGAGAAAUGCC [U73C G127U]  0.92
10. UACGUAGGUGGUUUUCCCCUGAUAGUGCUAAGGGGGCCUGGAAGUUUGGACUGGGCAGAGCUCAACACAGCGUGGCAAAGUGACUGUGGCUAGACUGCCUCUCUGGAUUCCUCGUCACUCAGCAGGGCAUCUCUGAGAGAAGUGCC [G83A A142G]  0.97
11. UACGUAGGUGGUAUUCCCCUGAUAGUGCUAAGGGGGCCUGGAAGUUUGGACUGGGCAGAGCUCAACACAGCGUGGCAAAGUGGCUGUGGCUAGACUGCCUCUCUGGAUUCCUCGUCACUCAGCAGGGCAUCUAUGAGAGAAAUGCC [U13A C133A]  0.97
12. UACGUAGGUAGUUUUCCCCUGAUAGUGCUAAGGGGGCCUGGAAGUUUGGACUGGGCAGAGCUCAACACAGCGUGGCAAAGUGGCUGUGGCUAGACUGCCUCUCUGGAUUCCUCGUCACCCAGCAGGGCAUCUCUGAGAGAAAUGCC [G10A U119C]  1
13. UACGUAGGCGGUUUUCCCCCGAUAGUGCUAAGGGGGCCUGGAAGUUUGGACUGGGCAGAGCUCAACACAGCGUGGCAAAGUGGCUGUGGCUAGACUGCCUCUCUGGAUUCCUCGUCACUCAGCAGGGCAUCUCUGAGAGAAAUGCC [U9C U20C]  1.05
14. UACGAAGGUGGUUUUCCCCUGAUAGUGCUAAGGGGGCCUGGAAGUUUGGACUGGGCAGAGCUCAACACAGCGUGGCAAAGUGGCUGUGGCUAGACUGCCUCUCCGGAUUCCUCGUCACUCAGCAGGGCAUCUCUGAGAGAAAUGCC [U5A U104C]  1.1
15. UACGUAGGUGGUUUUCCCUUGAUAGUGCUAAGGGGGCCUGGAAGUUUGGACUGGGCAGAGCUCAACACAGCGAGGCAAAGUGGCUGUGGCUAGACUGCCUCUCUGGAUUCCUCGUCACUCAGCAGGGCAUCUCUGAGAGAAAUGCC [C19U U73A]  1.15
16. UACGUAGGUGGUGUUCCCCUGAUAGUGCUAAGGGGGCCUGGAAGUUUGGACUGGGCAGAGCUCAACACAGCGUGGCAAAGUGGCUGUGGCUAGACUGCCCCUCUGGAUUCCUCGUCACUCAGCAGGGCAUCUCUGAGAGAAAUGCC [U13G U100C]  1.17
17. UACGUAGGGGGUUUUCCCCUGAUAGUGCUAAGGGGGCCUGGAAGUUUGGACUGGGCAGAGCUCAACACAGCGUGGCAAAGUGGCUGUGGCUAGACUGCCUCCCUGGAUUCCUCGUCACUCAGCAGGGCAUCUCUGAGAGAAAUGCC [U9G U102C]  1.26
18. UACGUAGGUGGUUUUCCCCUGAUAGUGCUUAGGGGGCCUGGAAGUUUGGACUGGGCAGAGCUCAACACAGCGUCGCAAAGUGGCUGUGGCUAGACUGCCUCUCUGGAUUCCUCGUCACUCAGCAGGGCAUCUCUGAGAGAAAUGCC [A30U G74C]  1.27
19. UACGUAGGUGGUUUUCCCCUGAUAGUGCUAAGGGGGCCUGGAAGAUUGGACUGGGCAGAGCUCAACACAGCGUGGCAAAGUGGCUGUGGCUAGACUGCCUCUCUGGGUUCCUCGUCACUCAGCAGGGCAUCUCUGAGAGAAAUGCC [U45A A107G]  1.44
20. UACGUAGGUGGUUUUCCCCUGAUAGUGCUAAGGGGGCCUGGAAGUUUGGACUGGGCAGAGCUCAACACAGCGUGGCAAAGUGGCUGUGGCUAGACUGCCUCUCUGGGUUCCUCGCCACUCAGCAGGGCAUCUCUGAGAGAAAUGCC [A107G U115C]  1.99
